From publication doi:10.1101/2021.02.02.429374 (bioRxiv, 2021)

Target: yeast microtubules (assembled from tubulin purified from yeast, Tub1/Tub2-6His) (yeast, UniProt P09733 1-447; P02557 1-457)
Assay: TIRF microscopy-based microtubule-binding assay

yeast microtubules (assembled from tubulin purified from yeast, Tub1/Tub2-6His), sequence (P09733 whole entry, chain 1 of 2): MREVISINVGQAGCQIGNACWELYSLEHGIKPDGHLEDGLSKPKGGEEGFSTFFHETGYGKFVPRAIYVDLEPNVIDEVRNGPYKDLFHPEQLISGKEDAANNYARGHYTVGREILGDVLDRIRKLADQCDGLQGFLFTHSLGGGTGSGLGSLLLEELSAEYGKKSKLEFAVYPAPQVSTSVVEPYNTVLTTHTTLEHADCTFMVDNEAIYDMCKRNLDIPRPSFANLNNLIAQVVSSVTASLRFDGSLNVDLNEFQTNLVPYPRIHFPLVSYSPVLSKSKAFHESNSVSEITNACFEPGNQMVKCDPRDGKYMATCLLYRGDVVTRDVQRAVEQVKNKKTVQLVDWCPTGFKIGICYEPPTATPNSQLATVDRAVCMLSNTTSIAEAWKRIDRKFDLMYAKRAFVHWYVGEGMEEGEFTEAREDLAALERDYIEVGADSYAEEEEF
yeast microtubules (assembled from tubulin purified from yeast, Tub1/Tub2-6His), sequence (P02557 whole entry, chain 2 of 2): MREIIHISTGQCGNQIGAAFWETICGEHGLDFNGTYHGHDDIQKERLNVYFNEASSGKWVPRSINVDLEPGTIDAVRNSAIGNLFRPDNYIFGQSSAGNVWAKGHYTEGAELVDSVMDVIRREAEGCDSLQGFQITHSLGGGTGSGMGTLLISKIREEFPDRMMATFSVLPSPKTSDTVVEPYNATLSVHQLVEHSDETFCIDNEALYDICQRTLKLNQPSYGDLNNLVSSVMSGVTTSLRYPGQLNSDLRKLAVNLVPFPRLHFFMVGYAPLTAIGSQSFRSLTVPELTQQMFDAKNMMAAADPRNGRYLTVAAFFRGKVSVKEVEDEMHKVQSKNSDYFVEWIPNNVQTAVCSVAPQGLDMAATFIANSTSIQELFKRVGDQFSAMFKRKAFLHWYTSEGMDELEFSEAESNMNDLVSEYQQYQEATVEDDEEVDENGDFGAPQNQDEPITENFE

B1: She1-HaloTag^TMR (wild-type She1) (natural protein, budding yeast, UniProt P38200 1-338, looked up)
chain: MNDKLQEEHNEKDTTSQINGFTPPHMSIDFHSNNNSNIIETIGVSKRLGNSVLSELDSRASSKFEFLKDQSEQQYNGDKNNEPKSGSYNINEFFQAKHDSQFGQMESLDTHYTLLHTPKRKSQHAIPQDRSDSMKRSRPSRSIPYTTPVVNDITRRIRRLKLRNSLVNGNDIVARARSMQANSNINSIKNTPLSKPKPFMHKPNFLMPTTNSLNKINSAHRNTSSSSTASSIPRSKVHRSISIRDLHAKTKPVERTPVAQGTNSQLKNSVSVFDRLYKQTTFSRSTSMNNLSSGTSAKSKEHTNVKTRLVKSKTSGSLSSNLKQSTATGTKSDRPIWR
modifications: HaloTag-TMR ligand on the HaloTag
Kd: 0.854 µM

B2: She1-NLS^SV40-HaloTag (other)
chain: MNDKLQEEHNEKDTTSQINGFTPPHMSIDFHSNNNSNIIETIGVSKRLGNSVLSELDSRASSKFEFLKDQSEQQYNGDKNNEPKSGSYNINEFFQAKHDSQFGQMESLDTHYTLLHTPKRKSQHAIPQDRSDSMKRSRPSRSIPYTTPVVNDITRRIRRLKLRNSLVNGNDIVARARSMQANSNINSIKNTPLSKPKPFMHKPNFLMPTTNSLNKINSAHRNTSSSSTASSIPRSKVHRSISIRDLHAKTKPVERTPVAQGTNSQLKNSVSVFDRLYKQTTFSRSTSMNNLSSGTSAKSKEHTNVKTRLVKSKTSGSLSSNLKQSTATGTKSDRPIWRGSGSAAAPKKKRKVG
modifications: HaloTag-TMR ligand on the HaloTag
Kd: 0.806 µM
